Patent US20030143209A1 (AVENTIS PHARMA S A, published 2003)

Target: T1, CAR (Coxsackie and adenoviruses receptor) (human, UniProt P78310 20-365)
T1 sequence: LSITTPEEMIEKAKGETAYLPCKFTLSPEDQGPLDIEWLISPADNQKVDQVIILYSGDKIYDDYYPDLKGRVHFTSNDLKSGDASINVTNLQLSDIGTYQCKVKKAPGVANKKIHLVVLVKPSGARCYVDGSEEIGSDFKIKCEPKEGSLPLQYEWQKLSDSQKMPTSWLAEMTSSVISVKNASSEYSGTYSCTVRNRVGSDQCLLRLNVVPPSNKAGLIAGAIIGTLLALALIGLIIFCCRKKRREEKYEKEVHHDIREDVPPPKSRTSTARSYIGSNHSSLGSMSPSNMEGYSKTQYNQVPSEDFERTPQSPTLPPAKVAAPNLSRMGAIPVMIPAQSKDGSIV
Test: cell-based or functional assay

B1: vBS1: Ad5 virus with short-shafted fiber from Ad5 (deletion encompassing shaft repeats 4-16) (other)
chain: MKRARPSEDTFNPVYPYDTETGPPTVPFLTPPFVSPNGFQESPPGVLSLRLSEPLVTSNGMLALKMGNGLSLDEAGNLTSQNVTTVSPPLKKTKSNLDINYNKGLYLFTASNNSKKLEVNLSTAKGLMFDATAIAINAGDGLEFGSPNAPNTNPLKTKIGHGLEFDSNKAMVPKLGTGLSFDSTGAITVGNKNNDKLTLWTTPAPSPNCRLNAEKDAKLTLVLTKCGSQILATVSVLAVKGSLAPISGTVQSAHLIIRFDENGVLLNNSFLDPEYWNFRNGDLTEGTAYTNAVGFMPNLSAYPKSHGKTAKSNIVSQVYLNGDKTKPVTLTITLNGTQETGDTTPSAYSMSFSWDWSGHNYINEIFATSSYTFSYIAQE
B1 was tested, and the “cell transduction of 293 cells (specific lacZ expression, moi 50 VP/cell)” value was 10 fold.
